Data taken from article PMC3901689, “Leptin-Induced Endothelium-Dependent Vasorelaxation of Peripheral Arteries in Lean and Obese Rats: Role of Nitric Oxide and Hydrogen Sulfide” (PLoS ONE, 2014).

T1: human leptin binding domain (hLBD) consisting of the amino acids 428-635 of human leptin receptor (human, UniProt P48357 428-635)
T1 chain: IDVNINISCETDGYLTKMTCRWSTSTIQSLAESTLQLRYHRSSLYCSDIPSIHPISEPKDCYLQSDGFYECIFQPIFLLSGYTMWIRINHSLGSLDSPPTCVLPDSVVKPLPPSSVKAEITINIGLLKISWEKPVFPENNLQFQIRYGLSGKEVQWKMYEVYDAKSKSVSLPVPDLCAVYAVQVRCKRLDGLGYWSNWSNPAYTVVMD

T2: human leptin binding domain (hLBD) consisting of the amino acids 428-635 of human leptin receptor (human, UniProt P48357 428-635)
T2 sequence (looked up): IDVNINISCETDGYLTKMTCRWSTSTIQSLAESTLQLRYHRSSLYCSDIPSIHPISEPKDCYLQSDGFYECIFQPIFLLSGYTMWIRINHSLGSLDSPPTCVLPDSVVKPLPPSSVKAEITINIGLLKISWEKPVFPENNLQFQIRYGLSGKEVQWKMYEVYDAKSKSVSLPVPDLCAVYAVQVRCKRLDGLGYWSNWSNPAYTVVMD


Legend:
[1] = biological target: T1, human leptin binding domain (hLBD) …; test: ELISA; competition with biotinylated human leptin; given as EC50
[2] = biological target: T2, human leptin binding domain (hLBD) …; test: competitive non-radioactive receptor-binding assay; hLBD immobilized; biotinylated human leptin bound in the presence of the indicated concentrations of SRLA or PEG-SRLA; triplicates; settings: both partners purified

IC50 [1] [nM]	binding result [2]	Binder
0.977	binds	super active rat leptin antagonist (D23L/L39A/D40A/F41A mutant), non-pegylated (ligand, extra Ala left at the N-terminus from an extra Met-Ala (Met is cleaved by the bacteria); leptin, rat; about 16 kDa by SDS-PAGE; also called SRLA) AVPIHKVQDDTKTLIKTIVTRINLISHTQSVSARQRVTGAAAIPGLHPILSLSKMDQTLAVYQQILTSLPSQNVLQIAHDLENLRDLLHLLAFSKSCSLPQTRGLQKPESLDGVLEASLYSTEVVALSRLQGSLQDILQQLDLSPEC
9.31	binds	mono-pegylated super active rat leptin antagonist (D23L/L39A/D40A/F41A mutant) (ligand, mono-pegylated (90%, with 10% double pegylated product); site and PEG size not stated, extra Ala left at the N-terminus from an extra Met-Ala (Met is cleaved by the bacteria); leptin, rat; same chain as m1; also called PEG-SRLA; pegylated superactive rat leptin receptor antagonist) AVPIHKVQDDTKTLIKTIVTRINLISHTQSVSARQRVTGAAAIPGLHPILSLSKMDQTLAVYQQILTSLPSQNVLQIAHDLENLRDLLHLLAFSKSCSLPQTRGLQKPESLDGVLEASLYSTEVVALSRLQGSLQDILQQLDLSPEC
